Source: the DeepSol protein solubility set

Test: soluble on expression in E. coli; label from the status in PepcDB or PDB records

Sequence	soluble on expression in E. coli
MKWDEYVDIFDTDVVSKIIILRNLPINEGWIDINELAEELQLNKKSVKKYVELLKDDITYYVVDNDASLAFEKGHGYRLNLASSQAFQKLYTAIFRDSLTYQVMEDLFWGRFNGIVPATAKYHTSDATIRRLLKGFTEILAPLGLVINKSTWKIEGNEAYLRHFAYTIFMDLIRDTWPFDYIQETEVAQTVQKMMAFFNVEVAETVTRRVKYMVAISKVRSAQGAEYRPSAEQETYLEGNKHYQAFIEEMTATTLFLNKNDLTFVYFFLLANDQFYQDEATAQAILAHFDETEAPVYMLTHLVQHFLLEEIHMTPQLEKIRPQIFYYLFATHLFAELYYVQNVKMYNVFWNKIKEKYPVLLAELIQGLNQLYEQTGNELFTNKEFLALRYSSVLALSNDLIHREQKIVLGLKSGLPVLEEERVKLSIENNFRRFYALEVLRYSEASKEEWQNIDLLLVTSLADVETGHPEIFLFSSELTFEQYNRLNQKIVKINEKRTTSL	not soluble
MSDTEKYVARPAVGHLPLDDSWTPTSAEAIQDEPSPDEEEYKRQYTCRMVPNEGPLYQHYMLEAVAVADDEVKIPLEEVKEEPVELPAAVVHEVVALKPATRRESSISSDSGRGADCSTTSASALTSNTSMRRDRLVGTSNFGSQRSLWCELPEVRAAGLLEKLDDECKLRQEAYFEVITSEASYLRSLNVLITHFMASPQMLGSKSALSVLSDSDRKHLFSNIFAVRDCSERLLCDLETRLEENLILDDICDILSDHFDKHFEVYIKYCSNQVYQDRTLRRLKTENPGFLSAVQRLEENKQCQGLDMRSFLMLPMQRVTRYPLLLYAILDRITTTDDRYKTATDALTSSNRVVRDCNEGARRMERTEQLLDIDRRLIYKDADLKRIPLVSNSRYLVKKGVLTQLVERRSSNILQSRQKARTLHVFLFSDMIMITKKKLNGTFVCKDYAARRFVDMQPIEPDNPKIPLGATSNLVGRPHLFLCTLMRNARDKQTELLLSADSETDRERWLSAVRPPTSTNPEEKIYAEWDCPQALVVHAYQPSQADELQLNIGDSLNILRKMPDGWLYGERAGDGLGGWFPSSYVQAIINDHTRANNYRQRLRIIQAASGWHGNASPSSTRSGGMPLMDRLRRMSNPKTYFQSGTVGL	not soluble
MGSDKIHHHHHHMKVVAVGGGTGLSTLLKGLKNIDSFEITAVVSVTDEGGSSGKLRKELNVPPPGDVRNNIVALAKDEDLLAKLMSYRFSEGSFKGHSLGNLIIAALTKIEGSFSEAIRILERVLAIKGRVLPVSEDHARLVARFEDGEEVIGETNIVRKGGKIVEVRLDRPIDALPEVLEAIERADIIIFGPGSLYTSIITNVLVNGVKDAIKKSKAKKIYVCNLMTQPGETTGYRVSDHVKELERYLEQSVDFVLVNTRKPSEEVLERYRKEGSDFVEIDAENIQNTILAEPFLVEIVDPSDGQRKIRHDSVKLADVIERISRW	not soluble
AIANVWLLGRGELRRRHDDVLQLERAFLTDRTGLHFVNARSSEDLLALAESRRAEQQWPVLDAEWISPVGTDTCDDLVWQNLESTLDGRPDTFYSTAGFEAGNTLSGTGELAPGEAFLAYRFWRPVRVYAVQLRAFQADFHPGRPVYPFQVARVGVGCSLQAGMSLSYGADASAPGTSCNYRCFCTTEQQTLVFDDPMVGVYLVICLKGFPQQQLTDRLHYAAVSGIRVFGEPISSPALENELSCLISRGFILDGRDAARWLDLRSAQEHAAPMHIPEDEVI	soluble
MGSDKIHHHHHHMNIQQLRYVVAIANSGTFREAAAKLFVSQPSLSVAVRDLETELGFQIFTRTTTGAVLTNQGMTFYENALEVVKSFDSFEKQFSQSEATEQEFSIASQHYDFLPPLITAFSKCNDNFSYFRIFESTTIRILDEVAQGNSEIGIIYINSQNKKGLLQRLDKLGLEFVELIPFKTHIYLGKDHPLASKTSLIMTDLEGLPTVRFTQDRDDYRYYSENFVEVLDSSVTYNVTDRATLNGILERTQAYATGSGFLDSRSVNGITVIPLEDHLDNQMIYIKRKDRNLSQMALKFVAVMEEYFKGFNS	not soluble
MSLISLQSDQLLEATVGQFMIEADKVAHVQVGNNLEHALLVLTKTGYTAIPVLDPSYRLHGLIGTNMIMNSIFGLERIEFEKLDQITVEEVMLTDIPRLHINDPIMKGFGMVINNGFVCVENDEQVFEGIFTRRVVLKELNKHIRSLNKEGGSHHHHHH	soluble
MAHHHHHHMKLFCVGHRKVPIRVSPFDHPICVGCSSTLSFSSVLRKREYWNDMSTTNPLDVVLNMRLAVKELTNSAAASDKASEREKIKAKKALNKDNIEAARVYAENAIRKKDEGTSYLRLASRVDAAAERIQSAMQMHAMTRSLEKAICGISKVLHSLDPVQITTAMDAFERHVDTVAVNANAMDGTFERSRASAVPAAEVESFLEQITPDNEIDISEQIAVATNYLKKRPAATEVGDDVGITERMQRISIGAR	not soluble
MAEEEVGNSQRQSEEIEAMAAIYGEEWCVIDENAKIFCIRVTDFMDDPKWTLCLQVMLPSEYPGTAPPSYQLNAPWLKGQERADLSNSLEEIYVHNMGESILYQWVEKIRDALIQKSQITEPDPDVKKKTEEVEVESEEDPILEHPPENPVKTLDLKISEETQPETEELPPVAHGVPITDRRSTFQAHVAPVVCPEQVKLVLAKLYENKKIASATHNIYAYRIFCEDKQTFLQDCEDDGETAAGGRLLHLMEILNVKNVMVVVSRWYGGILLGPDRFKHINNCARNILVEKNFTNTPDESTKNLGKKKVKKDKKKNDH	soluble
SNAEMSYELAQHGRSTLPRELAVYALEGPFFFAAAETFERVMGSIQETPQILILRLKWVPFMDITGIQTLEEMIQSFHKRGIKVLISGANSRVSQKLVKAGIVKLVGEQNVYPVFEGALSAALTEIEAQP	soluble
MWFKNLTLYRFNKPFSIETEALETALADFTFSPCGSQDVSKFGFSNALGKKGSTLVHSANNRHLICVTKEEKILPAQVIKESLEEKVAQIEDEENRKLAKKEKDALKDEIITSLLPRAFSRRSQTRALILPELEMILVDSSSATKAEELLALLRKALGSLPVIPLSFKAPIESQLTEWLKNGSAPLPFEMQDEAELKSAADEGGIVRFKQQDLKEDEVLAHLETGKEVHKLALHFGQSIALLLQSDASVKRLKFSEEFRAGNDELGNEDPMARLDADFALMGSELVALMHALVSALGGIEETQA	soluble
MAQLFFKYGAMNSGKTIEILKVAHNYEEQDKPVVLMTSGLDTRDGVGKVSSRIGLRRDAIPIFEETNVFDLINDLSYKPFCVLVDECQFLNKHHVIEFARIVDELDIPVMAFGLKNDFRNELFEGSKYLLLYADKLEELKTICWFCHKKATMNLHYIDGNPVYEGDQVQIGGNEAYYPVCRKHYFHPKTVNEEQLEHHHHHH	soluble
MGSDKIHHHHHHMLLHSAWPRLLCPSPKAKHLKDPAMFELDHDLAQDIVDRAMAILPCNVNVMDSQGLILGSGEPERINTRHEGAQLVLANGRIVELDTDAAKCLKGVQPGVNLPLMLDGRLMGVLGLTGDPQQVRTYGELVRMTAEMLLAQRNLQADQQWRRQRCDDLLALLLGGSGNSPRLLDEARQLGLKPQLPRIPCLFEITSGPPAEALAAWLMSRYPDSWCVSPARQSLLWCRPAGVALDELRLLERLQRHGWDIERLALGSAAQSLEQLRRGYRRVRDLLAYGREVLPSERLLSLQRYRLPALLWRHRNDDALDELLEPLQRIRAKDSSGQLLATLRAWCAHDGQSQSCADALGIHRNSLRYRLERIAELGEVDPLRLEGMLSLYLGLQLLPTD	not soluble
MAHHHHHHMKTFIGHFNNNALFSRNSFTNKSLRARKYTKNILSLKNLIYSSFFLYSTMNKVIGTHSGRFHTDEILATVMLKFLPEYKDAKIIRTRDQTKLDTCDIVVDVGGVYDHENKRYDHHQKEFEGTLDDKHTIRLSSAGLIYKHYGKEVLRKGFSITDEEKINVLYEKLYTSFIESVDALDNGINQYEGQPKYQINTTIQCRVNRFNPTFLEDDVDENERFMEAAKIVKQEFVHFVTYYSDVWYMAKSIVRESILDRFNFHKSGRVIYLQKYCPYTEHLYDLEQELNIQDEILYCIYSDRYNNFRCTAISKKNEPFVLRLPFPASFRGLKDEQLQTVSKIPGLTFVHYSGFTSAGENIESLVKLVEASLKENNIVY	not soluble
